For two molecules, Kd results are on record in PMC12350670.

The target in the assay is recombinant mouse fibroblast activation protein (mouse) (UniProt P97321). Nature of the assay: BLI; biotinylated bait protein (30 nM) loaded on Octet streptavidin (SAX) biosensors; serially diluted VNAR-Fc (300-0.412 nM) as analyte; PBS with 1% BSA; kinetic analysis with a bivalent analyte model.
Sequence of recombinant mouse fibroblast activation protein (mouse) (P97321 whole entry): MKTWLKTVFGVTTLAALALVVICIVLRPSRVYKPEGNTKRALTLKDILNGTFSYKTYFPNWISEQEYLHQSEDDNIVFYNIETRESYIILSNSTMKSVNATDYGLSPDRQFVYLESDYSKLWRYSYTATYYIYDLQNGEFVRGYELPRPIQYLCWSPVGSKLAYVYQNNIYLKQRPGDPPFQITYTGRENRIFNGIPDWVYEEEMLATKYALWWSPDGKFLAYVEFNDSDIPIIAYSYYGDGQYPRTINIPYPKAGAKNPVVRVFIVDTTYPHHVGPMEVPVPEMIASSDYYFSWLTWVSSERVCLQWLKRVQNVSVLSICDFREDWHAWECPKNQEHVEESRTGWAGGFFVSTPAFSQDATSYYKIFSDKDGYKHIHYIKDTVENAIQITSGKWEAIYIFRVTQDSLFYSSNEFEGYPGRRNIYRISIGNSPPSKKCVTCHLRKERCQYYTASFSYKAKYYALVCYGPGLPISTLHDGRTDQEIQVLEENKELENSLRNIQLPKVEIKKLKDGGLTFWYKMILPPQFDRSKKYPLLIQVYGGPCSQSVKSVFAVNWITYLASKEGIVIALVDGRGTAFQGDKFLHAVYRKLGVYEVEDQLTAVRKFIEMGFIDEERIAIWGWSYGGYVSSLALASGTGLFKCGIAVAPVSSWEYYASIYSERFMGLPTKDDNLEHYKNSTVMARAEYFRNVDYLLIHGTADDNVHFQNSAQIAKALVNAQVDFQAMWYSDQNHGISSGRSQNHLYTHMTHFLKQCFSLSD

B1: H4-Fc (Fc fusion)
chain: ARVDQTPQTITKETGESLTINCVLRDSNCALSSTYWYRKKSGSTNEESISKGGRYVETVNSGSKSFSLRINDLTVEDSGTYRCNVYVAGMSPCLSWGDVYGDGTAVTVN
For B1, the Kd is 14.2 nM.

B2: NGS2405-Fc (Fc fusion)
chain: ARVDQTPQTITKETGESLTINCVLRDSNCALSFTYWYRKKSGSTNEESISKGGRYVETVNSGSKSFSLRINDLTVEDSGTYRCNVYVGGGCPHWIDVYGDGTAVTVN
With B2, the Kd was determined as 79.5 nM.
